This note sets out measurements from patent publication US20040005554A1.

The target in experiment [1] is ARP-GFP fusion protein (human ARP, Leu form from pBSSKII ARP.4, fused to EGFP of pEGFP-N2) (human). Briefly: anti-GFP plate capture, detection with anti-FLAG M2 and anti-mouse IgG-AP; unconcentrated medium of cotransfection.
Experiment [2] shares this target. Briefly: anti-GFP plate capture, detection with anti-FLAG M2 and anti-mouse IgG-AP; concentrated medium of cotransfection.

FLAG-BRP fusion protein (N-terminal FLAG tag on predicted mature human BRP, secreted through the mouse preprotrypsin signal), sequence (Q86YW7 other isoform, or with tags, fused parts or gaps limits assumed): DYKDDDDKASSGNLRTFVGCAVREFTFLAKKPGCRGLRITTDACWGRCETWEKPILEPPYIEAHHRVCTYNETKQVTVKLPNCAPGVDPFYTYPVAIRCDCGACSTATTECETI

For the substance “FLAG-BRP fusion protein (N-terminal FLAG tag on predicted mature human BRP, secreted through the mouse preprotrypsin signal) (from UniProt Q86YW7 25-130)”, the results for the Abs 405 nm in experiment [1] and in experiment [2] were 0.972 Abs 405 nm and 1.41 Abs 405 nm, respectively.
